According to patent publication US20240398949A1 (OSLO UNIVERSITETSSYKEHUS HF, published 2024):

Legend:
[1] = target: T1, extracellular domain of p95HER2 peptide with a polyhistidine-tag in the C-terminus; assay: SPR (Biacore T200, 25° C.), antibody immobilized on CM5 chip, peptide as analyte 0.6 to 2500 nM, 1:1 model
T1 construct: Used as analyte in SPR
Description: SPR was performed as described previously in Gomes & Andreu, Journal of Immunological Methods 259:217-230, 2002. […] The extracellular domain of p95HER2 peptide with a polyhistidine-tag in the C-terminus (SEQ ID NO: 19) was used as analyte with serial dilutions from 0.6 to 2500 nM. […] (SEQ ID NO: 19)
Kinetics of molecular interaction were processed by global curve fitting to the 1:1 bimolecular interaction model. Biacore T200 (GE Healthcare) was used to perform the experiment and all procedures were conducted at 25° C.

[2] = target: T2, Peptide 7 of Table 3 (15mer of the p95HER2 extracellular domain); assay: peptide array on cellulose membrane, overlapping 15mers, signal intensity (area under curve), triplicate spots
T2 construct: Synthetic peptide immobilized on a cellulose membrane
T2 peptide: VDLDDKGCPAEQRAS

[3] = target: T3, Peptide 5 of Table 3 (peptide of the p95HER2 extracellular domain); assay: as above
T3 construct: Synthetic peptide immobilized on a cellulose membrane
T3 peptide: INCTHSCVDLDDKG

[4] = target: T4, Peptide 2 of Table 3 (15mer of the p95HER2 extracellular domain); assay: as above
T4 construct: Synthetic peptide immobilized on a cellulose membrane; also called KFPDEEGACQPCPIN
T4 peptide: KFPDEEGACQPCPIN

[5] = target: T5, peptide 28 (FIGURE 3 d/e); assay: peptide array on cellulose membrane, double-alanine substitution series, signal intensity (area under curve), duplicate spots
T5 peptide: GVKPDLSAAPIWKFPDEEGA

[6] = target: T6, peptide 31 (FIGURE 3 d/e); assay: as above
T6 construct: marked IW under the bar
T6 peptide: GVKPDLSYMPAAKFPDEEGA

[7] = target: T7, peptide 39 (FIGURE 3 d/e); assay: as above
T7 peptide: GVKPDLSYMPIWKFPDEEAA

[8] = target: T8, peptide 30 (FIGURE 3 d/e); assay: as above
T8 construct: marked PI under the bar
T8 peptide: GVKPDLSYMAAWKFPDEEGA

[9] = target: T9, peptide 26 (FIGURE 3 d/e); assay: as above
T9 peptide: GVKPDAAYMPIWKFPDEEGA

[10] = target: T10, peptide 21 (FIGURE 3 d/e); assay: as above
T10 peptide: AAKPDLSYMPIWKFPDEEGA

[11] = target: T11, peptide 27 (FIGURE 3 d/e); assay: as above
T11 peptide: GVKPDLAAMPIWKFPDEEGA

[12] = target: T12, peptide 29 (FIGURE 3 d/e); assay: as above
T12 construct: marked MP under the bar
T12 peptide: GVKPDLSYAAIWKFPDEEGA

[13] = target: T13, peptide 25 (FIGURE 3 d/e); assay: as above
T13 peptide: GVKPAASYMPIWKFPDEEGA

[14] = target: T14, peptide 24 (FIGURE 3 d/e); assay: as above
T14 peptide: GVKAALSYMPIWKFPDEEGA

[15] = target: T15, peptide 38 (FIGURE 3 d/e); assay: as above
T15 peptide: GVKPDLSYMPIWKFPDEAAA

[16] = target: T16, peptide 36 (FIGURE 3 d/e); assay: as above
T16 construct: marked DE under the bar
T16 peptide: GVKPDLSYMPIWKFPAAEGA

[17] = target: T17, peptide 22 (FIGURE 3 d/e); assay: as above
T17 peptide: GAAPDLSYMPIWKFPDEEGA

[18] = target: T18, peptide 23 (FIGURE 3 d/e); assay: as above
T18 peptide: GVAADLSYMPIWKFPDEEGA

[19] = target: T19, peptide 35 (FIGURE 3 d/e); assay: as above
T19 construct: marked PD under the bar
T19 peptide: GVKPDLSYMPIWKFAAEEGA

[20] = target: T20, peptide 32 (FIGURE 3 d/e); assay: as above
T20 construct: marked WK under the bar
T20 peptide: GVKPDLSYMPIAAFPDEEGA

[21] = target: T21, peptide 34 (FIGURE 3 d/e); assay: as above
T21 construct: marked FP under the bar
T21 peptide: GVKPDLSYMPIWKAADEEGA

[22] = target: T22, peptide 33 (FIGURE 3 d/e); assay: as above
T22 construct: marked KF under the bar
T22 peptide: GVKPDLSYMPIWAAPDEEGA

B1: Oslo-2 antibody (monoclonal antibody against p95HER2) (antibody, V domains shown)
VH: EVQILETGGGLVKPGGSLRLSCATSGFNFNDYFMNWVRQAPGKGLEWIAQIRNKNYNYATYFAESLEGRFTISRDDSKSSVYLQVNSLRAEDTALYYCTELRYDYWGQGVMVTVSS
VL: DIVMTQSPFSLAVSEGEMVTINCKSSQSLLSSGNQKNNLAWYQQKPGQSPKLLIYYASTRQSGVPDRFIGSGSGTDFTLTISDVQAEDLADYYCLQHYSSPYTFGAGTKLELK
notes: Monoclonal antibody from a rat hybridoma (mClone 1), detected with goat anti-rat-PE; also called the antibody of interest; the antibody
B1 was tested, and the Kd [1] was 2 nM, the binding result [2] was “no binding” and the binding result [3] was “no binding”. B1: no binding [4]; binds [5]; no binding [6]. B1: binds [7]; binds [8]; binds [9]. B1: binds [10]; binds [11]; binds [12]. B1: binds [13]; binds [14]; binds [15]. B1: binds [16]; binds [17]; binds [18]. B1: binds [19]; no binding [20]; binds [21]. B1: binds [22].
